The target in test [1] is human KDR (VEGFR-2), cell surface-expressed (HUVEC) (human, UniProt P35968 20-1356). Put plainly: cell-based or functional assay.
The target in test [2] is T1, soluble fusion protein Flk-1-AP (murine, UniProt P35918 20-762).
T1 construct: expressed in NIH 3T3; not shown: alkaline phosphatase (AP)
Put plainly: ELISA on captured Flk-1-AP. (In general: In an ELISA, binding on a coated surface is turned into a signal by an enzyme label.)

The target of test [3] is T2, soluble fusion protein KDR (VEGFR-2)-AP (human, UniProt P35968 20-764).
T2 construct: extracellular domain; expressed in NIH 3T3 cells; also called KDR-AP; KDR (VEGFR-2)-alkaline phosphatase fusion protein; not shown: human placental alkaline phosphatase (AP), vector AP-Tag
T2 sequence (P35968 20-764): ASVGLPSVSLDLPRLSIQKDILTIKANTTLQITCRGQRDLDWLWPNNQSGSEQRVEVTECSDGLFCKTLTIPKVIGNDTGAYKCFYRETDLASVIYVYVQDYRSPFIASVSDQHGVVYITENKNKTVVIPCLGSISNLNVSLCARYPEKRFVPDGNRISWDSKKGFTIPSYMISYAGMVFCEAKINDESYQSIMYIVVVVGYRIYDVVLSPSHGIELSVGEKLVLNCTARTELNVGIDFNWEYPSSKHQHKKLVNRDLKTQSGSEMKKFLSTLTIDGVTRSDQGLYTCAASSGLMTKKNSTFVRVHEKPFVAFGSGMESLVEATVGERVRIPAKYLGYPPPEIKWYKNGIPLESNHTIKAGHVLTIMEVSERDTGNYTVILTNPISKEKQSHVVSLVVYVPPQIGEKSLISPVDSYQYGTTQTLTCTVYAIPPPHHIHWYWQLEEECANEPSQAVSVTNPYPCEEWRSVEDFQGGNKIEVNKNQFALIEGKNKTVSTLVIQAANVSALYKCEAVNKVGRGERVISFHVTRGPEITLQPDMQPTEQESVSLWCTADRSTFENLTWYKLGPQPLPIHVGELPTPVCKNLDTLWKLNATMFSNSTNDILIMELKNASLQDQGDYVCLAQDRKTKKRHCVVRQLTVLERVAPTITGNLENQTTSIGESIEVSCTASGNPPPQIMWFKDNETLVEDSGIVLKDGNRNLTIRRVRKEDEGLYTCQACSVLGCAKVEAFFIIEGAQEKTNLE
Put plainly: competitive ELISA: KDR-AP binding to immobilized VEGF165. As to the method:
In a direct binding assay, various amounts of soluble Fab proteins were added to KDR (VEGFR-2)-coated 96-well Maxi-sorp microtiter plates and incubated at RT for 1 h, after which the plates were washed 3 times with PBST. The plates were then incubated at RT for 1 h with 100 Φl of a rabbit anti-human Fab antibody-HRP conjugate (Jackson ImmunoResearch Laboratory Inc., West Grove, Pa.). The plates were washed and developed following the procedure described above for the phage ELISA. […] The mixtures were then transferred to 96-well microtiter plates precoated with VEGF₁₆₅ (200 ng/well) and incubated at RT for an additional 2 h, after which the plates were washed 5 times and the substrate for AP (p-nitrophenyl phosphate, Sigma) was added. Absorbance at 405 nm was measured to quantify the bound KDR (VEGFR-2)-AP molecules (8).

Test [4] concerns the target T2, soluble fusion protein KDR (VEGFR-2)-AP. Put plainly: BIAcore, KDR-AP immobilized. As to the method: The binding kinetics of soluble Fab proteins to KDR (VEGFR-2) were measured by surface plasmon resonance using a BIAcore biosensor (Pharmacia Biosensor). […] Sensorgrams were obtained at each concentration and were evaluated using a program, BIA Evaluation 2.0, to determine the rate constants kon and koff Kd was calculated from the ratio of rate constants koff/kon.
Background: Surface plasmon resonance follows binding to a sensor surface in real time, without labels.

Test [5] addresses human KDR (VEGFR-2), construct not stated (human, UniProt P35968 20-764, limits assumed). Put plainly: selection from second Fab phage library.
Test [6] deals with T1, soluble fusion protein Flk-1-AP. Put plainly: blocking of VEGF binding to Flk-1.

Residue numbers refer to the chain shown, from its start.

The values below come from US20090022714A1 (published 2009).

T1 sequence (P35918 20-762): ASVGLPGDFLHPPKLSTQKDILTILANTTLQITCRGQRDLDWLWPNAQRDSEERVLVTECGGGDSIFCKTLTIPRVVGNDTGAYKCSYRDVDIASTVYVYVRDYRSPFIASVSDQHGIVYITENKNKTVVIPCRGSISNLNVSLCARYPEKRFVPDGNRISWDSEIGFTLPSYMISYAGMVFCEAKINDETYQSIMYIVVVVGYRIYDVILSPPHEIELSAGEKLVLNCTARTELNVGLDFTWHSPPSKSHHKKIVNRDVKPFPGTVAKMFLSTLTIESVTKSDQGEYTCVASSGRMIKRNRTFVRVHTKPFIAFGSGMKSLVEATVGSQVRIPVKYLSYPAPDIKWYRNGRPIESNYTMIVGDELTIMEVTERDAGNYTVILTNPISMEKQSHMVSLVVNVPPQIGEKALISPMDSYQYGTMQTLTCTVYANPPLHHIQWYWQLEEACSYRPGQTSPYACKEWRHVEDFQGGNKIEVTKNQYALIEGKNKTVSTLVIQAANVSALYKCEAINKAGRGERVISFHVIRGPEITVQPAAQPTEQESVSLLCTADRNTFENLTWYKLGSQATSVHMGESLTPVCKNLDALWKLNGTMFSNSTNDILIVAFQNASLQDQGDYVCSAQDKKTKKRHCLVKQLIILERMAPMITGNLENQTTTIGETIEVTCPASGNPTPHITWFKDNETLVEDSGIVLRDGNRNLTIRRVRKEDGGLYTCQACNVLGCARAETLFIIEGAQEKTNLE
Sequence of human KDR (VEGFR-2), construct not stated (P35968 20-764 limits assumed): as the sequence (P35968 20-764) above
Sequence of human KDR (VEGFR-2), cell surface-expressed (HUVEC) (P35968 20-1356): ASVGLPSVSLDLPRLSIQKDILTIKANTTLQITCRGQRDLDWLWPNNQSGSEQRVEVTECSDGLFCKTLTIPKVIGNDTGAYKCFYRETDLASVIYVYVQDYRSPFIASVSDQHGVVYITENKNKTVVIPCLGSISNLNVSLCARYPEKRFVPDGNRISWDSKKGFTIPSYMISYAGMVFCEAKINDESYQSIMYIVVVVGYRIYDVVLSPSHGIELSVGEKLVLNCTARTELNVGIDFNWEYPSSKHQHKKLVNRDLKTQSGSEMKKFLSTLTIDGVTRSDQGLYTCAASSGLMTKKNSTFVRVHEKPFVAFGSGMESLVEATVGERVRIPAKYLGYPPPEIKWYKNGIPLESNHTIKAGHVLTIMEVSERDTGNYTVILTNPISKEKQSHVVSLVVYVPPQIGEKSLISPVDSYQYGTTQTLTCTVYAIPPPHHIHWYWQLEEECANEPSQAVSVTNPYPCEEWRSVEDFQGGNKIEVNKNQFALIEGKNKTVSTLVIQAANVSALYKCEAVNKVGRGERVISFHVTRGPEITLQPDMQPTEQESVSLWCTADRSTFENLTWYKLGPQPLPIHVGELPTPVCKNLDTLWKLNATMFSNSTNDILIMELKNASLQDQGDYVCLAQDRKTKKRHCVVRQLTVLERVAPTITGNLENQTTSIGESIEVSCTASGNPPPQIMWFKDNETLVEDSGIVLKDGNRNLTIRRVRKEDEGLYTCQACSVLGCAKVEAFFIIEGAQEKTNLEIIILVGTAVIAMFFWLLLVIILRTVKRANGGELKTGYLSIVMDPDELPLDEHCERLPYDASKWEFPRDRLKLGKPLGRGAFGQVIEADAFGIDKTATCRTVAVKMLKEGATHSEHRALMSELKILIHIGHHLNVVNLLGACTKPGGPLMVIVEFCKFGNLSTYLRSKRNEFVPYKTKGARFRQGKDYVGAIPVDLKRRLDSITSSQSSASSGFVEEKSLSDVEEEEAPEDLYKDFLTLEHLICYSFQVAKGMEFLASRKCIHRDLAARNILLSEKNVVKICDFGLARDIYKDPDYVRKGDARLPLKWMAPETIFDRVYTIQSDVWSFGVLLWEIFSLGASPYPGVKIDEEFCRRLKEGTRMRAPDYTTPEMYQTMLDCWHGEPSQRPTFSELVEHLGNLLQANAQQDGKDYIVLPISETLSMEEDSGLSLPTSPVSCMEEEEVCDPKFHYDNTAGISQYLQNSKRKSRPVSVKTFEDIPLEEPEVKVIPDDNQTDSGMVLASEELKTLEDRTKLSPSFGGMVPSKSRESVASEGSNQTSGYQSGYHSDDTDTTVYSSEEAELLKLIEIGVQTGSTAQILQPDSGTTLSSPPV

B1: human anti-KDR (VEGFR-2) Fab D2C6 (Fab, V domains shown)
VH: EVQLVQSGGGLVKPGGSLRLSCAASGFTFSSYSMNWVRQAPGKGLEWVSSISSSSSYIYYADSVKGRFTISRDNAKNSLYLQMNSLRAEDTAVYYCARVTDAFDIWGQGTMVTVSS
VL: EIVMTQSPATLSLSPGERATLSCRASQSVSSYLAWYQQKPGQAPRLLIYDSSNRATGIPARFSGSGSGTDFTLTISSLEPEDFATYYCLQHNTFPPTFGQGTKVEIK
notes: soluble Fab from E. coli HB2151; also called Hu-2C6 Fab
For B1, in test [1], the “EC50, inhibition of VEGF-stimulated [3H]-TdR incorporation in HUVEC” value (from here on “EC50, inhibition of VEGF-stimulated”) was around 0.5 nM. For the same molecule, the binding result in test [2] is on record as “no binding”. Besides, the IC50 – broadly, the concentration that inhibits the measured activity by half – in test [3] is around 2 nM. Moreover, in test [4], the affinity, expressed as Kd, was 1.97 nM; the koff – broadly, the first-order rate constant of dissociation – was 0.000538 s⁻¹; the kon (usually the second-order rate constant of association) was found to be 273000 M⁻¹ s⁻¹.

B2: human anti-KDR (VEGFR-2) Fab D2H2 (Fab, V domains shown)
VH: B1 VH with N77D
VL: DIQLTQSPSSVSASVGDRVTITCRASQGISSRLAWYQQKPGKAPKLLIYAASSLQTGVPSRFSGSGSGTDFTLTISSLQPEDFATYYCQQANRFPPTFGPGTKVDIK
notes: soluble Fab from E. coli HB2151; also called Hu-2H2 Fab
With B2, the “EC50, inhibition of VEGF-stimulated” value in test [1] is around 0.8 nM. Also, the binding result in test [2] is “no binding”. This molecule also yielded an IC50 in test [3] of around 2 nM. Besides, in test [4], the dissociation constant Kd (as a rule, a measure of binding affinity in units of concentration) was 3.93 nM; the koff was 0.000487 s⁻¹; the kon was determined as 124000 M⁻¹ s⁻¹.

B3: human Fab SA1 (Fab, V domains shown)
VH: B1 VH
VL: QSVVTQPPSVSGAPGQRVTISCTGSHSNFGAGTDVHWYQHLPGTAPRLLIHGDSNRPSGVPDRFSGSRSGTSASLAITGLRVEDEADYYCQSYDYGLRGWVFGGGTKLTVL
notes: from the second library (D2C6 heavy chain with shuffled light chains)
Turning to B3, the binding result in test [5] is reported as “binds”.

B4: human Fab SC7 (Fab, V domains shown)
VH: B1 VH
VL: DIQLTQSPSSVSASVGDSVTITCRASQDISSWLAWYQQKPGEAPKLLIYAASLLQSGVPSRFSGSGSGTDFALTINSLQPEDFATYFCQQADSFPPTFGQGTRLEIK
notes: from the second library
As to B4, the binding result in test [5] is given as “binds”.

B5: human Fab SB5 (Fab, V domains shown)
VH: B1 VH
VL: QAVLTQPSSVSGAPGQRVTISCTGQSSNIGADYDVHWYQQFPGTAPKLLIYGHNNRPSGVPDRFSGSKSGTSVSLVISGLQAEDEADYYCQSYDSSLSGLVFGGGTKVTVL
notes: from the second library
With B5, in test [5], the binding result is reported as “binds”.

B6: human Fab SA3 (Fab, V domains shown)
VH: B1 VH
VL: DVVMTQSPSSLSASVGDRVTITCRASQNINNYLNWYQQKPGKAPKLLIYAASTLQSGVPSRFSGSGSGTDFTLTITSLQPEDSATYYCQQYSRYPPTFGGGTKVEIT
notes: from the second library
As for B6, in test [5], the binding result was “binds”.

B7: human Fab SD2 (Fab, V domains shown)
VH: B1 VH
VL: DIELTQSPSSVSASVGDRVTLTCRASQSIKRWLAWYQQKPGKAPRLLIYAASTLQSGVPSRFSGGGSGTDFTLTINSLQPEDFAIYYCQQANSFPPTFGPGTKVDIK
notes: from the second library
Regarding B7, the binding result in test [5] is “binds”.

B8: human anti-KDR (VEGFR-2) Fab D1H4 (Fab, V domains shown)
VH: B1 VH
VL: QSALTQPASLSGSPGQSITISCAGTTTDLTYYDLVSWYQQHPGQAPKLVIYDGNKRPSGVSNRFSGSKSGNTASLTISGLQAEDEADYYCNSYVSSRFYVFGTGTKVTVL
notes: soluble Fab from E. coli HB2151; also called Hu-1H4 Fab
Consider B8, for which, in test [1], the “EC50, inhibition of VEGF-stimulated” value was around 0.5 nM. For the same molecule, the binding result in test [2] is listed as “no binding”. In test [3], this molecule showed an IC50 of around 2 nM. In test [4], this molecule came in with a dissociation constant Kd of 2.76 nM, an off-rate constant (koff) of 0.000153 s⁻¹ and a kon of 55500 M⁻¹ s⁻¹.

B9: human Fab SF2 (Fab, V domains shown)
VH: B1 VH
VL: QSVVTQPPSVSGAPGQRVTISCTGSSSNIGTGYDVHWYQQVPGSAPKLLIYAYTNRPSGVPDRFSGSKSGMSASLVIGGLQAEDEADYYCQSFDDSLNGLVFGPGTSVTVL
notes: from the second library
Turning to B9, in test [5], the binding result is “binds”.

B10: human Fab SD5 (Fab, V domains shown)
VH: B1 VH
VL: QSVVTQPPSVSGAPGQRVTISCSGSRSNIGAHYEVQWYQQFPGAAPKLLIYGDTNRPSGVPDRFSASHSGTSASLAITGLQAEDEADYYCQSYDTSLRGPVFGGGTKLTVL
notes: from the second library
Turning to B10, the binding result in test [5] is recorded as “binds”.

B11: human Fab SB10 (Fab, V domains shown)
VH: B1 VH
VL: QSALTQPASVSGSRGQSITLSCTGSSTDVGNYNYISWYQQHPGQAPKLLIYDVTSRPSGVSDRFSGSKSGLTASLTISGLQPEDEADYYCNSYSATDTLVFGGGTKLTVL
notes: from the second library
Turning to B11, the binding result in test [5] is recorded as “binds”.

B12: human Fab 1121 (Fab, V domains shown)
VH: B1 VH
VL: DIQMTQSPSSVSASIGDRVTITCRASQGIDNWLGWYQQKPGKAPKLLIYDASNLDTGVPSRFSGSGSGTYFTLTISSLQAEDFAVYFCQQAKAFPPTFGGGTKVDIK
notes: from the second library
For B12, the binding result in test [5] was “binds”.

B13: human Fab SF7 (Fab, V domains shown)
VH: B1 VH
VL: B3 VL with V4L, S54T, N55H, P61A, T71A
notes: from the second library
For the molecule B13, the binding result in test [5] is “binds”.

B14: human anti-KDR (VEGFR-2) Fab D1F7 (Fab, V domains shown)
VH: EVQLVQSGAEVKKPGASVKVSCKASGGTFSSYAISWVRQAPGQGLEWMGGIIPIFGTANYAQKFQGRVTFTADKSTSTAYMELRSLRSDDTAVYYCARGYDYYDSSGVASPFDYWGQGTLVTVSS
VL: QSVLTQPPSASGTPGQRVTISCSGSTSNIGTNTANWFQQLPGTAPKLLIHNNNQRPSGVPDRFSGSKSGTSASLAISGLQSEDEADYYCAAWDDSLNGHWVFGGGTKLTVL
notes: soluble Fab from E. coli HB2151; also called DIF7; Hu-1F7 Fab
For B14, the “EC50, inhibition of VEGF-stimulated” value in test [1] was around 15 nM. In addition, the IC50 in test [6] is around 15 nM. This molecule also showed an IC50 in test [3] of around 20 nM. In addition, in test [4], the dissociation constant Kd came out at 45.2 nM, the off-rate (koff) is 0.00187 s⁻¹ and the kon was 41400 M⁻¹ s⁻¹.
